Measured values: the RNAGym collection of RNA variant scans (doi:10.1073/pnas.2313332121)
This sample holds only a part of the variants without activity.

B1: TPR 5TU (parent)
chain: GGAUCUUCUCGAUCUAACAAAAAAGACAAAUCUGCCACAAAGCUUGAGAGCAUCUUCGGAUGCAGAGGCGGCAGCCUUCGGUGGCGCGAUAGCGCCAACGUUCUCAACUAUGACACGCAAAACGCGUGCUCCGUUGAAUGGAGUUUAUCAUG

Variants of: B1
Assay: polymerase ribozyme fitness, log enrichment relative to wild type (log ratio); higher = more active; in vitro selection for triplet polymerase activity
Method in brief: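 Streptavidin-bead capture of gel-excised extended constructs, followed by RT-PCR, closed a single triplicate in vitro selection round. That round began by annealing PCR-built, transcribed mutant libraries of each subunit of a heterodimeric triplet polymerase ribozyme with a biotinylated primer, the partner subunit and triplets, then incubating them frozen at −7 °C. After Illumina sequencing of inputs and outputs, genotypes needed ≥10 input reads and ≥1 read per output. Fitness is the base-2 logarithm of genotype enrichment over wild-type enrichment, using inverse-variance-weighted replicate averages.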

| Variant | polymerase ribozyme fitness (log ratio) |
| --- | --- |
| U45G C79G G83U C85G U102C | ≤ -4.2 |
| G46C A110G | ≤ -4.2 |
| A47C U53A C95U G136C | -3.62 |
| U45G G50A C54U A120C G126C | ≤ -4.2 |
| A47G C87A U90G A98G C99A G117C C149A | ≤ -4.2 |
| A47C C57U C79A G94A U151G | ≤ -4.2 |
| A47C C87U C105A A119C | -1.51 |
| A47C C85U C118U U130A | -3.62 |
| A47U A97C | 0.501 |
| A47G G50C G71C G94A U134C | ≤ -4.2 |
| G46A U82C C95U C125G | -1.73 |
| U45G C85U | -0.0479 |
| G46A A91G G136U | ≤ -4.2 |
| U45G G50C G81C C85A C118A | ≤ -4.2 |
| G46C U101G A107U A137C | -4.12 |
| A47G G59A | 0.381 |
| A47C C105A | -1.02 |
| A47C C103G U135G | ≤ -4.2 |
| A47C C51A C54U U61A C79A C93G C95A C132U C149U | ≤ -4.2 |
| G46U A64U C76A C87A G126U | ≤ -4.2 |
| A47U A52G A119C | -1.05 |

| Variant | polymerase ribozyme fitness (log ratio) |
| --- | --- |
| G46U C69U C96A A110U A121C | ≤ -4.2 |
| G46A A47C U53A C57U A107U G117A | ≤ -4.2 |
| A47C C51U C54U A73C A122U | ≤ -4.2 |
| A47G G50A A52U C63A A142C | ≤ -4.2 |
| A47C G59A G62C G67C G68C C99U A107U C114A A121G | ≤ -4.2 |
| G46U A60U G92C U139G | ≤ -4.2 |
| A47C A73U G124C | -3.78 |
| A47C A107U C108A | ≤ -4.2 |
| A47C C51U C54U C72U G84U | -3.18 |
| A47G A98G A115G C123G U130A | -3.77 |
| A47C C51G C87U A89U A107G | ≤ -4.2 |
| A47C G92A A107G | ≤ -4.2 |
| A47C C69A A89G G124A | -3.28 |
| A47C C96A C123G U151G | ≤ -4.2 |
| A47C U55A C57A G84U C96U C99U G136A G143C | ≤ -4.2 |
| G46C C149U | -2.58 |
| A47C A89U A150G | -1.84 |
| A47G U55A C116G | -0.139 |
| A47C C96A | -0.697 |
| A47C U61C C96U | -3.35 |
| G46C C75G G88A C114U | ≤ -4.2 |

| Variant | polymerase ribozyme fitness (log ratio) |
| --- | --- |
| G46U A98G | 0.0194 |
| G46A A97U U109G A121G U135C | ≤ -4.2 |
| G46C C54A U61A C63U G70A G84A C93U G100A C116G | ≤ -4.2 |
| A47U C85G | -2.65 |
| A47U C85A | -2.21 |
| G46A G50A | -0.957 |
| A47G G133C C149G | -3.65 |
| G46U G58U A89U U102G C118G C129A G152U | ≤ -4.2 |
| A47C G124U | -1.09 |
| A47U A89G C131A | ≤ -4.2 |
| A47C C54A C76U C85G A106U G143C | ≤ -4.2 |
| G46U U77G C87U A89U C93A G124U | ≤ -4.2 |
| A47C U56G A91U C96G C118U A122C C131U U139C U148A | ≤ -4.2 |
| U45G G50A A73C C93U C96U C99A C108A G112C G124U U127G A142G C149G | ≤ -4.2 |
| A47G C57U U109G | -0.869 |
| A47U C76U A119C U139G | -2.8 |
| U45G C57A | 0.374 |
| A47C A52U U82A A120U | -1.94 |
| A47G U90A | -3.82 |
| A47G C51G C76U C87U U104G A107U U151C | ≤ -4.2 |
| G46C U53A G92U U111G U134C | ≤ -4.2 |

| Variant | polymerase ribozyme fitness (log ratio) |
| --- | --- |
| A47C C75G U77A G88A A106U | ≤ -4.2 |
| G46C U77G A142C | ≤ -4.2 |
| G46A G59U | 0.917 |
| A47G U55A G84U G128A | ≤ -4.2 |
| G46U G59A G74A G84C U104C G112C U134G U145A | ≤ -4.2 |
| A47G C99A A142U | -2.48 |
| G46A G50C A52C C69A | ≤ -4.2 |
| A47C C69A C87U G100U A121G G143U | ≤ -4.2 |
| A47G G80A | -0.0419 |
| A47U C54A C75G G140A | ≤ -4.2 |
| A47C C72G G83U A142G | ≤ -4.2 |
| U45G G94A A137G | -2.23 |
| A47C C57A G84A U101C | -0.765 |
| A47C G141C U148G | ≤ -4.2 |
| A47U C85U A150C | ≤ -4.2 |
| G46A C85U A89G C96A A106C U145C U146G | ≤ -4.2 |
| U45G C75G C87A A120C G141C | ≤ -4.2 |
| G46U U61A G92U C96A A137G | ≤ -4.2 |
| G46C C93U C96U | -2.86 |
| A47C U56A U78A U90G | ≤ -4.2 |
